Measured values taken from article PMC7387793, “Structural Basis and Evolution of Glycan Receptor Specificities within the Polyomavirus Family” (mBio, 2020).

Assays:
[1] = biological target: Sheep polyomavirus (ShPyV) major capsid protein VP1, amino acids 20 to 285, C95S (sheep polyomavirus (ShPyV)); assay: crystal structure; X-ray structures of truncated, assembly-incompetent VP1 pentamers, native and soaked with sialylated glycans; solved by molecular replacement with 5-fold NCS restraints
[2] = biological target: Human polyomavirus 12 (HPyV12) major capsid protein VP1, amino acids 27 to 299 (human polyomavirus 12 (HPyV12)); assay: as above
[3] = biological target: Goose hemorrhagic polyomavirus (GhPyV) major capsid protein VP1, amino acids 21 to 286 (goose hemorrhagic polyomavirus (GhPyV)); assay: as above
[4] = biological target: New Jersey polyomavirus (NJPyV) major capsid protein VP1, amino acids 36 to 323 (New Jersey polyomavirus-2013 (NJPyV)); assay: as above
[5] = biological target: Finch polyomavirus (FiPyV) major capsid protein VP1, amino acids 22 to 291, C78S C92S (finch polyomavirus (FiPyV)); assay: as above
GhPyV VP1 = biological target: T1, GhPyV VP1 (Goose hemorrhagic polyomavirus, UniProt A0A860PKB9); assay: X-ray crystal structure (soak); type: binding; details: crystal soaked with 20 mM 2-O-Me-Neu5Ac, 17 h, MES/imidazole pH 6.5, 1.95 Å; BC2 loop site
T1 construct: truncated VP1, residues 21-286, E. coli BL21(DE3), His tag cut by thrombin (GSHM left), pentamer; site includes counterclockwise monomer

[6] = biological target: Chimpanzee polyomavirus (ChPyV) major capsid protein VP1, N- and C-terminally truncated, C154S (chimpanzee polyomavirus (ChPyV)); assay: crystal structure; X-ray structures of truncated, assembly-incompetent VP1 pentamers, native and soaked with sialylated glycans; solved by molecular replacement with 5-fold NCS restraints

Compound: Sheep polyomavirus (ShPyV) major capsid protein VP1, amino acids 20 to 285, C95S (domain or fragment)
- stoichiometry N [1]: 5

Compound: Human polyomavirus 12 (HPyV12) major capsid protein VP1, amino acids 27 to 299 (domain or fragment)
- stoichiometry N [2]: 5

Compound: Goose hemorrhagic polyomavirus (GhPyV) major capsid protein VP1, amino acids 21 to 286 (domain or fragment)
- stoichiometry N [3]: 5

Compound: New Jersey polyomavirus (NJPyV) major capsid protein VP1, amino acids 36 to 323 (domain or fragment)
- stoichiometry N [4]: 5

Compound: Finch polyomavirus (FiPyV) major capsid protein VP1, amino acids 22 to 291, C78S C92S (domain or fragment)
- stoichiometry N [5]: 5

Compound: CO[C@]1(C(=O)O)C[C@H](O)[C@@H](NC(C)=O)[C@H]([C@H](O)[C@H](O)CO)O1 [2-O-Me-Neu5Ac]
- X-ray crystal structure (soak) (GhPyV VP1): GhPyV VP1 with 2-O-Me-Neu5Ac

Compound: Chimpanzee polyomavirus (ChPyV) major capsid protein VP1, N- and C-terminally truncated, C154S (domain or fragment)
- stoichiometry N [6]: 5
